Target: Hemiselmis andersenii phycobiliprotein α subunit Haα^OB1 (open-braced form) (Hemiselmis andersenii)
Test: crystal structure

stoichiometry N: 2
Substance: Hemiselmis andersenii phycobiliprotein α subunit Haα^OB1 (open-braced form) (natural protein)
